# Source: patent publication US10640563B2, “Anti-B7-H3 antibodies and antibody drug conjugates” (AbbVie Inc., priority 2016, dated 2020)
# Tests used:
# [1] = test system: HCC38 (breast cancer) cells; assay: In vitro cell viability assay (CellTiter-Glo), HCC38; assay type: cell-based, human; conditions: antibody conjugated to synthon CZ
# Description: (§1) Nine anti-B7-H3 chimeric antibodies were conjugated to the Bcl-xL inhibiting (Bcl-xLi) synthon CZ (Example 2.1) using conjugation Method A described below. The resulting ADCs (anti-B7-H3 antibodies conjugated to synthon CZ) were tested for binding to cell surface human B7-H3 by FACS (as described in Example 6) and for cell cytotoxicity in cell lines expressing B7-H3. […] Table 6 provides cell surface binding and cytotoxicity activity of anti-B7-H3 chimera ADCs against breast cancer cell HCC38 expressing human B7-H3.
# The tumor cell lines HCC38 (breast cancer), NCI-H1650 (NSCLC) and NCI-H847 (small cell lung cancer cell line) were obtained from American Type Culture Collection (ATCC). Cells were grown in 96-well culture plates using recommended growth media overnight at a density of 5×10^3 (HCC38) or 20×10^3 (NCI-H847) or 40×10^3 (NCI-H1650) per well. The following day, treatments were added in fresh media to triplicate wells. Cellular viability was determined 5 days later using the CellTiter-Glo Luminescent Cell Viability Assay kit (Promega), as directed in the manufacturer's protocol. Cell viability was assessed as percentage of control untreated cells.
# [2] = Observation after conjugation to synthon (Method A); assay type: physicochemical; conditions: after conjugation to Bcl-xLi synthon CZ
# Description: as §1
# A solution of Bond-Breaker™ tris(2-carboxyethyl)phosphine (TCEP) solution (10 mM, 0.017 mL) was added to a solution of antibody (10 mg/mL, 1 mL) preheated to 37° C. The reaction mixture was kept at 37° C. for 1 hour. The solution of reduced antibody was added to a solution of synthon (3.3 mM, 0.160 mL in DMSO) and gently mixed for 30 minutes. The reaction solution was loaded onto a desalting column (PD10, washed with Dulbecco's phosphate-buffered saline [DPBS] 3× before use), followed by DPBS (3 mL). The purified ADC solution was filtered through a 0.2 micron, low protein-binding 13 mm syringe-filter and stored at 4° C.
# [3] = Aggregation of conjugates by SEC; assay type: physicochemical
# HCC38 cell line = assay: Cell cytotoxicity of ADCs in HCC38 cell line; assay type: cell-based; conditions: CZ conjugates
# Description: The humanization of chAb18 generated 10 variants (described above in Table 9) that retained binding to human and cyno B7-H3 as assessed by FACS (the method of which is described above in Example 6). These variants were further characterized for binding by SPR and were successfully conjugated to the Bcl-xL inhibitor synthon CZ using Method A (described above) and assessed for cell cytotoxicity as described in Example 7. The parental chAb18 from which the variants were derived was also tested as a comparator. All humanized variants had similar binding properties as assessed by biacore, and retained binding activity to cell surface expressed as conjugates with the CZ synthon. The cytotoxicity of all of the variants as CZ synthons were similar to the chAb18 from which they were derived.
# Humanized chAb18 variants were conjugated to the CZ synthon and tested for cytotoxicity in HCC38 cell line.
# NCI-H146 cells = assay: In vivo xenograft model of small cell lung cancer (NCI-H146); set-up: species or system mice; conditions: 6 mg/kg/IP/QDx1
# [4] = Table 10, CZ conjugates of Ab18 variants
Molecule,cytotoxicity in cells expressing human B7-H3 (in words) [1],Conjugation observation [2],"% agg by SEC [3, 4]",IC50 (HCC38 cell line; Table 10),TGD (%) (NCI-H146 cells; Table 11),TGImax (%) (NCI-H146 cells; Table 11),other results
"chAb2 (conjugate, conjugated payload not specified; Synthetic chAb2 VH amino acid sequence; Synthetic chAb2 VL amino acid sequence) VH: QVQLQQPGAELVKPGASVKLSCKASGYTFTSYWMHWVKQRPGQGLEWIGMIHPDSGTTNYNEKFRSKATLTVDKSSSTAYMQLSSLTSEDSAVYYCAVYYGSTYWYFDVWGTGTTVTVSS VL: DVVMTQTPLSLPVSLGDQAYISCRSSQSLVHINGNTYLHWYRQKPGQSPKLLIYKVSNRFSGVPDRFSGSGSGTDFTLKISRVEAEDLGVYFCSQSTHFPFTFGSGTKLEIK",weak cytotoxicity,precipitated,–,–,–,–,–
huAb3v6-CZ (conjugate) VH: EVQLVQSGAEVKKPGSSVKVSCKASGYTFSSYWMHWVRQAPGQGLEWIGLIHPDSGSTNYNEMFKNRATLTVDRSTSTAYVELSSLRSEDTAVYFCAGGGRLYFDYWGQGTTVTVSS VL: DVVMTQSPLSLPVTPGEPASISCRSSQSLVHSNGDTYLRWYLQKPGQSPQLLIYKVSNRFSGVPDRFSGSGSGTDFTLKISRVEAEDVGVYYCSQSTHVPYTFGGGTKVEIK,–,–,–,–,–,–,"% agg by SEC ([3]; Table 14, CZ conjugates of Ab3 variants): 4.9%; IC50 (HCC38 cell line; Table 14): 0.13 nM; TGD (%) (NCI-H146 cells; Table 15): 88%; TGImax (%) (NCI-H146 cells; Table 15): 91%"
chAb6 (conjugate) VH: QVQLQQSGAELMKPGASVKISCKATGYTFSRYWIEWVKQRPGHGLEWIGEILPGSGSTNYNEKFKGKATFTADTSSNTAYMQVSSLTSEDSAVHYCARRGYGYVPYALDYWGQGTSVTVSS VL: EIQMTQTTSSLSASLGDRVTISCRASQDISNSLNWYQQKPDGTVNLLIYYTSRLYSGVPSRFSGSGSGTDYSLTISNLEQEDIATYFCQQGNTLPYTFGGGTKLEIK,weak cytotoxicity,precipitated,–,–,–,–,–
"chAb16 (conjugate, conjugated drug; Synthetic chAb16 VH amino acid sequence; Synthetic chAb16 VL amino acid sequence) VH: EVKLLESGGGLVQPGGSLKLSCAASGFDFSRYWMSWVRQAPGKGLEWIGEINPDSSTINYTPSLKDKFIISRDNAKNTLYLQMSKVRSEDTALYYCARPGFGNYIYAMDYWGQGTSVTVSS VL: DIQMTQTTSSLSASLGDRVTINCRASQDISNFLNWYQQKPDGTVKLLIYYTSRLYLGVPSRFSGSGSGTDYSLTISNLEQEDIATYFCQQGNTLPPTFGGGTKLEIK",weak cytotoxicity,precipitated,–,–,–,–,–
huAb18v1-CZ (conjugate) VH: EVQLVQSGAEVKKPGSSVKVSCKASGYSFTSYTIHWVRQAPGQGLEWMGYINPNSRNTDYNQKFKDRVTITADKSTSTAYMELSSLRSEDTAVYYCARYSGSTPYWYFDVWGQGTTVTVSS VL: DIQLTQSPSFLSASVGDRVTITCRASSSVSYMNWYQQKPGKAPKLLIYATSNLASGVPSRFSGSGSGTEFTLTISSLQPEDFATYYCQQWSSNPLTFGQGTKLEIK,–,–,3.3%,0.39 nM,45%,79%,–
huAb18v6-CZ (conjugate) VH: EVQLVQSGAEVKKPGSSVKVSCKASGYSFTSYTIHWVRQAPGQGLEWMGYINPNSRNTDYAQKFQGRVTLTADKSTSTAYMELSSLRSEDTAVYYCARYSGSTPYWYFDVWGQGTTVTVSS VL: EIVLTQSPDFQSVTPKEKVTITCRASSSVSYMNWYQQKPDQSPKLLIKATSNLASGVPSRFSGSGSGTDFTLTINSLEAEDAATYYCQQWSSNPLTFGQGTKLEIK,–,–,3.5%,0.14 nM,45%,86%,–
huAb18v3-CZ (conjugate) VH: EVQLVQSGAEVKKPGSSVKVSCKASGYSFTSYTIHWVRQAPGQGLEWIGYINPNSRNTDYNQKFKDRTTLTADRSTSTAYMELSSLRSEDTAVYYCARYSGSTPYWYFDVWGQGTTVTVSS VL: DIQLTQSPSFLSASVGDRVTITCRASSSVSYMNWYQQKPGKSPKPWIYATSNLASGVPSRFSVSVSGTEHTLTISSLQPEDFATYYCQQWSSNPLTFGQGTKLEIK,–,–,3.6%,0.32 nM,39%,81%,–
huAb18v9-CZ (conjugate) VH: EVQLVQSGAEVKKPGSSVKVSCKASGYSFTSYTIHWVRQAPGQGLEWIGYINPNSRNTDYNQKFKDRTTLTADRSTSTAYMELSSLRSEDTAVYYCARYSGSTPYWYFDVWGQGTTVTVSS VL: EIVLTQSPDFQSVTPKEKVTITCRASSSVSYMNWYQQKPDQSPKPWIYATSNLASGVPSRFSVSVSGTDHTLTINSLEAEDAATYYCQQWSSNPLTFGQGTKLEIK,–,–,3.8%,0.9 nM,35%,83%,–
huAb18v4-CZ (conjugate) VH: EVQLVQSGAEVKKPGSSVKVSCKASGYSFTSYTIHWVRQAPGQGLEWMGYINPNSRNTDYAQKFQGRVTLTADKSTSTAYMELSSLRSEDTAVYYCARYSGSTPYWYFDVWGQGTTVTVSS VL: DIQLTQSPSFLSASVGDRVTITCRASSSVSYMNWYQQKPGKSPKPWIYATSNLASGVPSRFSVSVSGTEHTLTISSLQPEDFATYYCQQWSSNPLTFGQGTKLEIK,–,–,5.5%,0.29 nM,48%,85%,–
huAb18v7-CZ (conjugate) VH: EVQLVQSGAEVKKPGSSVKVSCKASGYSFTSYTIHWVRQAPGQGLEWMGYINPNSRNTDYAQKFQGRVTLTADKSTSTAYMELSSLRSEDTAVYYCARYSGSTPYWYFDVWGQGTTVTVSS VL: EIVLTQSPDFQSVTPKEKVTITCRASSSVSYMNWYQQKPDQSPKPWIYATSNLASGVPSRFSVSVSGTDHTLTINSLEAEDAATYYCQQWSSNPLTFGQGTKLEIK,–,–,3.6%,0.03 nM,42%,87%,–
